Source: the nanobody polyreactivity screen of Harvey et al. (2022)

Test: yeast display, Sf9 membrane polyspecificity reagent, FACS + sequencing; frameworks hold sequencing errors
Summary of the method: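 Polyreactivity labels are assigned by the sorting gate from which each nanobody was recovered. The gates were low and high (top ~1%), set on anti-HA fluorescence for expression and streptavidin fluorescence for reagent binding. Before sorting, galactose-induced (36–48 hours) yeast display cells were stained for 1 hour at 4 °C with 10% biotinylated, detergent-solubilized Sf9 membrane reagent.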

| Sequence | polyreactivity (PSR sort gate) |
| --- | --- |
| LVLLVESGGGLVQAGGSLRLSCAASGSSLDWYAMGWYRQAPGNVRELVASLSYSGGTTYYADSVTVRFTISRDNAKNTVYLQMISLKPDDTAVDYCATDLLNNVDYDYWGQGTQVTVSS | low polyreactivity |
| LVQLVESGGGLVQAGGSLRLICAASGSIFSGYAMGWYRQAPGNERELVAAITRSGGRTYYADSVKGRFTISRDNAKNTVYLQMNSLKPEDTAGYYCATLPRYYGYWGQGTQVTVSS | high polyreactivity |
| LVQLVESGGGLVQAGGSLRLSCAASGITLARNAMGWYRQAPGKEWELVAAITWSGGTTYYADSVKGRFTISRDNAKNTVYLQMNSLKPEDTAVYYCAASAKLHYYRTYRYNYWGQGTQVTVSS | high polyreactivity |
| LVQLVESGGGLVQAGGSLRLSCAASGSTFANNAMGWYRQAPGKERELVASITTDGSTNYADSVKGRFTISRDNAKNTVYLQMNSLKPEDTAVYYCAAAYQKSPITPKMDYWGQGTQVTVSS | low polyreactivity |
| LVQLVESGGGLVQAGGSLRLSCAASGSTFDYYAMGWYRQAPGQERELVAAISGSGDRTYYADSVKGRFTISRDNAKNTVYLQMNSLKPEDTAVYYCAKYGRTRFYYWGQGTQVTVSS | high polyreactivity |
| LVQLVESGGRLVQAGGSLRLSCAASGRTFPAYTMGWYRQSPGKERDLVAANYSSGGTTYYADSVKGRFTISRDNAKNTVYLQIYSINPEDNAVYYCNAYLGYYYYYLDALIGYDYWGQGTQVTVSS | low polyreactivity |
| PLQLVESGGGLVQAGGSLRLSCAASGIIFGRYTMGWYRQAPGKERELFAAITSSGITYYADSVNGRFTISRDNAKNTVYLQLNSLKPEDTAVYYCNADYSIPGYYWPYDYWGLGTQVTVSS | low polyreactivity |
| PVQLQESGGGLVQAGGSLRLSCAESGNIFDADIMGWYRQAPGKERELVDCIADGGSTNYADSVKGSFTISRDNAKITVYLQMNSLKPEDTAVYYCAAIAYPDIPTCFDYDSDYFFRGQGTQVTVSS | low polyreactivity |
| PVQLVESGGGIVQAGGSLRLSCAASGSTFVGKAMGWSRQAPGKQREMFAAISRTGGSPYYADSVKGRFSISRDNAKNSVYLQMISLKPEDTAVYYCAEVYGGPYGELDYWGHGTQVTVSS | high polyreactivity |
| PVQLVESGGGLVQAGASLRLSCAASGNTFIENAKGSYRQAPGKERELVADIDTGGSTYYADSVKGRFTISRDNAKNTVYLQMNRLKPEDTADYYCTAVGLYLYRYKFGYLGKIGPGYDYWGQGTQVTVSS | low polyreactivity |
| PVQLVESGGGLVQAGGILRLSCAACGRIFQRNAMGWYRQAPGKERELVATITSRGGSTYYADSVKGRFTISRDNAKNTVYLQMNSLKPEDTAVYYCAADPRRYRGFGYVYGGFYYWGQGTQVTVSS | low polyreactivity |
| PVQLVESGGGLVQAGGRLRLSCAASGIIFSDYAMGWYRQAPGKERELVAAIPGGGSTYYADSVKGRFTISRDNAKNTVYLQMNSLKPEDTAVYYCNADWARLWIRSTEVDYWGQGTQVTVSS | low polyreactivity |
| PVQLVESGGGLVQAGGSHRVICAASGRIFYVDAMGWSTQAPGKERELVADMSRGGSTNYADSVKGRFTISRDNAKKTVYLQMNRLKPEDTSVYYCNTDGLWSAEYDYWGQGTQVTVSS | low polyreactivity |
| PVQLVESGGGLVQAGGSLLLSCAASGRTFIYYAMGWYRQAPGKERELVAGISRHGGRTYYADSVKGRFTISRDNAKNTVYLQMNSLKPEDTAVYYCNAYPPSGHDYWGQGTQVTVSS | high polyreactivity |
| PVQLVESGGGLVQAGGSLRLICAASALTFPPYSMGWYRQAPAKERELVAAISRNAGNTYYADSVKGRFTISRDTAKNTVYLQMNSLKPEDTAVYYCAAKRGTQGMYYWGQGTQVTVSS | high polyreactivity |
| PVQLVESGGGLVQAGGSLRLSCAASGSIFCYYTMGWYRQAPGKERELVASIDYSGVSTYYADSVKGRFTISRDNAKNTVYLQMNSLKPEDTAVYDCNAVYYSWDGSTWEYGYWGQGTQVTVSS | low polyreactivity |
| PVQLVESGGGLVQAGGSLRLSCAASGSIFDLNAMGWYRQAPGKERELVAAISSGGGTYYADSVKGRFTISLDNAKNTVYLQMNSLKPEDTAVYSCNRVTRGSYNYWGQGTQVTVSS | high polyreactivity |
| PVQLVESGGGLVQAGGSLRLSCAASGSTFRRNVMGWYRQAPGKEREFVAAISYRTGSTYYADSVKGRFTISRDNAKNTVYLQMNSLKPEDTAVYYCAASSQWVGYYYWGQGTQVTVSS | high polyreactivity |
| PVQLVESGGGLVQAGGSLRLSCAASGSTFTSNAMGWYRQAPGKERELVAAIDRNGGRTYYADSVNGRFTISRDNAKNTVYLQMNSMKPEDTEVYYCAVLSKYRRTFGSWGQGTLVTVSS | high polyreactivity |
| PVQLVESGGGLVQAGGSLRLSCAGSGFTFYTNTMGWYIQAPGKERELVAAISSGGSTYADSVKVRYTISRDNAKNTVDLQMNSLKPEDTAVYYCARDFYYSLSGFDYWGQGTQVTVSS | low polyreactivity |
| PVQLVESGGGLVQAGGSLRLSWAASGRIFVVNAMGWYRQAPGKEREFLASITRGASTYADSVKGRFTISRDNAKNTVYLQMNSLKPEDTAVYYCSDAKRPQVVRYDWTKLEYWGQGTQVTVSS | high polyreactivity |
| PVQLVESGGVLVQAGGSLRLSCAASGITFWDKAMGWYRQPPGKERELVAAITSGNTDYADSVKGRFTISRDNAKNSVYLPMTSLIPEDTAVYYCGAELLVGGGVTVDYWGQGTQVTVSS | low polyreactivity |

| Sequence | polyreactivity (PSR sort gate) |
| --- | --- |
| QAELVESGGGLVQAGGSLRLSCAASGLTFRAYAMGWYRQAPGKERELVAAISWNGGSTYYADSVKGRFTISRDNAKNTVYLQMNSLKPEDTAVYYCNAYDYQYFYGYEYDYWGQGTQVTVSS | high polyreactivity |
| QAQLKESGGSLVQAGGGLRLSCAASGYNSVGSVMGWYRQAPSKERELVASIDQGANTNYADSVKGRFTISRDNAKNNVYLQMNSLKPEDTAVYYCATETTYFLNYWGQGTQVTVSS | low polyreactivity |
| QAQLQESGGSLVQAGGGLRLSCAASGYISVGSVMGWYRQAPSKERELVASIDQGANTNYADSVKGRFTISRDNAKNYVYLQMNSLKPEDTAVYYCATETTYILNYWGQGTQVTVSS | low polyreactivity |
| QAQLQESGGSLVQAGGGLRLSCAASGYISVGSVMGWYRQAPSKERELVASIDQGANTNYADSVKGRFTISRNNAKNNVYLQMNSLKTEDTAVYYCATETTYILNYCGQGTQVTVSS | low polyreactivity |
| QAQLVESGGGLVQAGGSLRLSCAASGRTFYYYTMGWYRQAPGKERELVAAISYSGGSTSYADSVKGRFTISRDNAKNTVYLQMNSLKPEDTAVYYCNARYKYYTQRRYHYDYWGQGTQVTVSS | high polyreactivity |
| QAQLVESGGGLVQAGGSLRLSCAASGRTLAWYALGWYRQAPGKERELVADISSGGSTYYADSVKGRFTISRDNAKHTVYVQMNSLKPEDTAVYYCAARWRSWRYKDDYWGQGTQVTVSS | high polyreactivity |
| QAQLVESGGGLVQAGGSLRLSCAASGRTSYRYVMGWYIQAPGKERELVAAISRGGRTYYADSVKGSFTISRDNAKYTVYLQMNSLNPEVTAVYYCNAAFGVYVATGDSFPRHKKFGFWGQGTQVTVSS | high polyreactivity |
| QAQLVESGGGLVQAGGSLRLSSAATGIIFGRYAMGWYRQAPGKERELVAAISTSGGSTYYADSVKGRFTISRDNAKNTVYLQMNSLKAEDTAVYYCAVDLFYKYDWGQGTQVTVSS | high polyreactivity |
| QDHLVESGGGIVQAGGSLRLSCAASGRTFHLNAIGWYRQAPGKARELVAAITNSGGRTSNADSVKGRFTISRDNAKNTVYLQMNSLKPQVTEVFFCNVEVTYSSGKYDYWGQGTQVTVSS | low polyreactivity |
| QDHLVESGGGLVQAGGSLRLSCAASGRIFDPYAMGWYRQAPGKERELVARITWRGGRTYYADSVKGRFTISLDNAKNTVYLQMNSLKPEDTAVYYCNAVFYYRYYGAYDYWGQGTQVTVSS | high polyreactivity |
| QDHLVESGGGLVQAGGSLRLSCAASGRTVGIYAMGWYRQAPGKVRELVASISWSGGRTYYADSVKGRFTISRENAKNTVYLQMNSLKPEDTAVYYCAAYGVYYPRSWLYFDWYGYCGQGTQVTVSS | high polyreactivity |
| QDHLVESGGGLVQAGGSLRLSCAASGSTFYFYAMGWYREAPGKERELVAVISSGGRTYYADSVKGRFTISRDNAKNSVYLQMNSLKPVDTGVYYGAASWPSSLTFYYWGHGTQVTVSS | low polyreactivity |
| QDHLVESGGGLVQAGGSLRLSCAAYGRTFESYAMGRYRHAPGKERELVAAISYSGGSTYYADSVKGRFTISRDNAKNTVYLQMNSLKPEDTAVYYCAVRWRYKYDYWGQGTQVTVSS | high polyreactivity |
| QDHLVESGGGLVQAGGSLRLSCAPSGSIFSYNSMGWYRQAPGKERELVAGISSDGSTNYADSVKGRFSISRDNAKNTVYLQMNSLKPEDTAVYYCAADEIVWQADLWGYGIYDYWGHGTQVTVSS | high polyreactivity |
| QDQHVESAGGLVQAGGSLRLSCAASGRIFTINARGWYRQAPGKERELVAGISGRSGGTYYADSVKGRFTISRDNAKNTVYLEMNSLKPEDTAVYYCAGDDWYSTYFEFNYWGQGTQVTVSS | low polyreactivity |
| QDQHVESGGGLLQAGGSLRLTCAAYGSIFTDYAMGWYRQPPGKERELVAAITRIGTRTYYADSVKGRFTISRDNAKNTVYLQMNSLKPEDTAVYYCAASGYSPVRWVWLYYWGQGTQVTVSS | high polyreactivity |
| QDQHVESGGGLVQAGGSLRLICAASGFTFSHYPMGSYRQAPGKERELVAAINWSGGSTDYADSVKGRFTLSRDNAMNTVYLQMNSLKPVDTAVYYCNTVSYAYWGYYYWGQGTQVTLSS | high polyreactivity |
| QDQHVESGGGLVQAGGSLRLSCAASGGIFQSYTMGRYRQAPGKEREFVAAITYSGGSTHYADSVKGRFTISRDKAKNTVYLQMNSLKPEDTAVYYCNADRYYGRGYGYWGQGTQVTVSS | low polyreactivity |
| QDQHVESGGGLVQAGGSLRLSCAASGIIFTRNAMGWYRQAPGKERELVAVISWGGRTYYADSVKGRFTISRDNAKNTVYLQMNSLKPEDTAVYYCNARAPYPVGGRKGDYWGQGTQVTVSS | high polyreactivity |
| QDQHVESGGGLVQAGGSLRLSCAASGIIFYDNTMGWYRQAPGKERELVASITWRGGSTYYADSVKGRFTISRDNAKNTVYLQMNSLKPEDTAVYYCNADSSDDYDYWGQGTQVTVSS | low polyreactivity |
| QDQHVESGGGLVQAGGSLRLSCAASGRTFVPYAMGWYRQAPGKERELVATISRSGGRTNYADSVKGRFTISRDNAKNTVYIQMNSLKPEDTAVYYCAATGFLTWRHMYYWGQGTQVTVSS | high polyreactivity |
